Ten molecules from US20140348834A1 (published 2014) can be followed below.

Usually EC50 stands for the concentration giving half of the maximal effect. One may read the Kd as the equilibrium constant for the complex coming apart. As a reminder, the koff is the rate constant with which the complex falls apart. Usually kon stands for the rate constant with which the complex forms.

Residue numbers refer to the chain shown, from its start. Like-named read-outs stand apart in the source and are kept apart here.

For experiment [1], the target named is T1, human IL-17A (human, UniProt Q16552 24-155).
T1 construct: Recombinant; biotinylated in the ELISA; also called hIL-17; hIL17A
T1 sequence (Q16552 24-155): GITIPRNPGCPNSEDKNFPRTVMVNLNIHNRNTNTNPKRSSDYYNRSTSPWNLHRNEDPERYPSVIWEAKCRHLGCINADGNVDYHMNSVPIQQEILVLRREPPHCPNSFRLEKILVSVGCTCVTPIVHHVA
Briefly: hIL17A ELISA. Background: An ELISA detects its analyte on a solid surface through an enzyme-linked reagent.
Experimental: The following protocol is used to characterize the binding of IL-17 antibodies to human IL-17 by enzyme-linked immunosorbent assay (ELISA). […] Coat ELISA plate with 50 μl per well of Goat anti Mouse IgG-Fc at 2 ug/ml, overnight at 4° C. […] Wash plate 3×PBS/Tween. […] Add 50 μl Mab diluted to 1 μg/ml in PBS/0.1% BSA to appropriate wells. Incubate 1 hr at room temperature (RT). […] Wash plate 3× with PBS/Tween. […] Add 50 μl of serial diluted biotin-IL17 (human IL-17, IL-17A/F, cyno IL-17) to appropriate wells. Incubate 1 hr at room temperature (RT). […] Wash plate 3× with PBS/Tween. […] Incubate 1 hr at RT. […] Wash plate 3× with PBS/Tween. […] Stop reaction with 50 μl 2N H₂SO₄. […] Read absorbance at 450 nm.

Experiment [2] has as its target T1, human IL-17A. Briefly: cell-based or functional assay.
The target of experiment [3] is T2, cynomolgus monkey IL-17A (cynomolgus monkey, UniProt A0A2K5TTB0 24-155). As to the kind of experiment: cell-based or functional assay.
T2 sequence (A0A2K5TTB0 entry or part of it): as the sequence (Q16552 24-155) above, with T3A, P8S, N34S, I77V, N78K, P104R counted along it
Experiment [4] has as its target T1, human IL-17A. As to the kind of experiment: SPR (Biacore 3000), antibody captured by anti-Fc, antigen in solution. In general terms: In SPR one partner is held on a chip, and binding of the other changes the refractive index at the surface.
Experimental: (§1) The binding of antibodies to purified recombinant human, cyno, rat, mouse, rabbit IL-17 and human IL-17A/F were determined by surface plasmon resonance-based measurements with a Biacore® 3000 instrument (Biacore® AB, Uppsala, Sweden) using running HBS-EP (10 mM HEPES [pH 7.4], 150 mM NaCl, 3 mM EDTA, and 0.005% surfactant P20) at 25° C. […] Approximately 5000 RU of goat anti-mouse or anti-human IgG (Fcγ) fragment specific polyclonal antibody (Pierce Biotechnology Inc, Rockford, Ill.) diluted in 10 mM sodium acetate (pH 4.5) was directly immobilized across a CM5 research grade biosensor chip using a standard amine coupling kit according to manufacturer's instructions and procedures at 25 μg/ml. Unreacted moieties on the biosensor surface were blocked with ethanolamine. Modified carboxymethyl dextran surface in flowcell 2 and 4 was used as a reaction surface. Unmodified carboxymethyl dextran without goat anti-mouse or anti-human IgG in flow cell 1 and 3 was used as the reference surface. For kinetic analysis, rate equations derived from the 1:1 Langmuir binding model were fitted simultaneously to association and dissociation phases of all eight injections (using global fit analysis) with the use of Biaevaluation 4.0.1 software. Purified antibodies were diluted in HEPES-buffered saline for capture across goat anti-mouse or anti-human IgG specific reaction surfaces. Antibodies to be captured as a ligand (25 μg/ml) were injected over reaction matrices at a flow rate of 5 μl/min. The association and dissociation rate constants, kon (unit M-1s-1) and koff (unit s-1) were determined under a continuous flow rate of 25 μl/min. Rate constants were derived by making kinetic binding measurements at ten different antigen concentrations ranging from 10 nM to 200 nM. The equilibrium dissociation constant (unit M) of the reaction between antibodies and recombinant purified IL-17 antigens was then calculated from the kinetic rate constants by the following formula: KD=koff/kon. Binding was recorded as a function of time and kinetic rate constants are calculated. In this assay, on-rates as fast as 10⁶ M⁻¹ s⁻¹ and off-rates as slow as 10⁻⁶ s⁻¹ can be measured.
In experiment [5] the target is T3, human IL-17A/F (human, UniProt Q16552 24-155; Q96PD4 31-163).
T3 construct: Recombinant; biotinylated in the ELISA; also called hIL-17A/F; HuIL-17A/F
T3 sequence (Q16552 24-155, chain 1 of 2): as the sequence (Q16552 24-155) above
T3 sequence (Q96PD4 31-163, chain 2 of 2): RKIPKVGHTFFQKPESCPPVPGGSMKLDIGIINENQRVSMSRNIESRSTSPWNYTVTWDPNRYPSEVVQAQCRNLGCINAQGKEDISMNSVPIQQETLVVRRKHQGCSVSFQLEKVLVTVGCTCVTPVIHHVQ
Described as above.
Experimental: as §1

Experiment [6] addresses T2, cynomolgus monkey IL-17A. The description is as above.
Experimental: as §1
Experiment [7] deals with T4, rat IL-17A (rat, UniProt Q61453 18-150, limits assumed).
T4 construct: Purified recombinant protein in SPR
T4 sequence (looked up): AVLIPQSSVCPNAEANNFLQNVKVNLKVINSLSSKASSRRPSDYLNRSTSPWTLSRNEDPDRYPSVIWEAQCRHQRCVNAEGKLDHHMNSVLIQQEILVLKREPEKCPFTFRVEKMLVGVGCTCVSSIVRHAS
Described as above.
Experimental: as §1

Experiment [8] concerns the target T5, mouse IL-17A (mouse, UniProt Q62386 26-158, limits assumed).
T5 construct: Purified recombinant protein in SPR; also called MuIL-17A; murine IL-17A
T5 sequence (looked up): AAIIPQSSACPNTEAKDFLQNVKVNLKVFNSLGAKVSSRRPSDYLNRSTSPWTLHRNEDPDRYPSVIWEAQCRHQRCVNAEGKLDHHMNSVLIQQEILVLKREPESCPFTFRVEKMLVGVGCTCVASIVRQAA
The description is as above.
Experimental: as §1

The target in experiment [9] is T1, human IL-17A. Briefly: cell-based or functional assay. This is another data set of the same source.
Experiment [10] concerns the target T1, human IL-17A. Briefly: SPR (Biacore 3000), antibody captured by anti-Fc, antigen in solution. This is another data set of the same source.
Experimental: as §1
Experiment [11] has as its target T3, human IL-17A/F. The experiment is described as above. This is another data set of the same source.
Experimental: as §1
Experiment [12] addresses T2, cynomolgus monkey IL-17A. The experiment is described as above. The source holds these as a separate data set.
Experimental: as §1
Experiment [13] concerns the target T4, rat IL-17A. Described as above. This is another data set of the same source.
Experimental: as §1
Experiment [14] has as its target T5, mouse IL-17A. The description is as above. The source holds these as a separate data set.
Experimental: as §1

B1: IL17-h10F7.6 (antibody, V domains shown)
VH: EVQLVQSGAEVKKPGSSVKVSCKASGYTFTDYEIHWVRQAPGQGLEWIGVNDPESGGTFYNQKFDGRATLTADKSTSTAYMELSSLRSEDTAVYYCTRYYRYESFYGMDYWGQGTTVTVSS
VL: DIQLTQSPSSLSASVGDRVTITCSASSSISYIYWFQQKPGKSPKRWIYATFELASGVPSRFSGSGSGTDYTLTISSLQPEDFATYYCHQRSSYPWTFGQGTKLEIKR
notes: IgG; constant regions not specified; also called h10F7.6 (VH.1a-Vk.1a)
With B1, the EC50 in the experiment with human IL-17A [1] came out at 50 pM. The “Potency (pM), IL-17-driven IL-6 production in HS27 cells” value (“Potency (pM)” below) came out at 264 pM with human IL-17A [2] and 313 pM with cynomolgus monkey IL-17A [3]. Moreover, the Kd stood at 302 pM with human IL-17A [4]; 1140 pM with human IL-17A/F [5]; 217 pM with cynomolgus monkey IL-17A [6]; 919 pM with rat IL-17A [7]; 980 pM in the experiment with mouse IL-17A [8]. In addition, the koff with human IL-17A [4] turned out to be 0.000185 s⁻¹; with human IL-17A/F [5] it was 0.000696 s⁻¹; with cynomolgus monkey IL-17A [6] it was 0.000154 s⁻¹; with rat IL-17A [7], 0.000454 s⁻¹; with mouse IL-17A [8] it was 0.000384 s⁻¹. Also, the kon with human IL-17A [4] came out at 612000 M⁻¹ s⁻¹; in the experiment with human IL-17A/F [5], 609000 M⁻¹ s⁻¹; with cynomolgus monkey IL-17A [6] it was 711000 M⁻¹ s⁻¹; in the experiment with rat IL-17A [7], 494000 M⁻¹ s⁻¹; with mouse IL-17A [8] it was 392000 M⁻¹ s⁻¹.

B2: IL17-h10F7.11 (antibody, V domains shown)
VH: B1 VH
VL: EIVLTQSPDFQSVTPKEKVTITCSASSSISYIYWFQQKPDQSPKRWIYATFELASGVPSRFSGSGSGTDYTLTINSLEAEDAATYYCHQRSSYPWTFGQGTKLEIKR
notes: IgG; constant regions not specified; also called h10F7.11 (VH.1a-Vk.2a)
In the case of B2, the EC50 in the experiment with human IL-17A [1] is 100 pM. Also, the “Potency (pM)” value in the experiment with human IL-17A [2] was 326 pM; with cynomolgus monkey IL-17A [3] it was 622 pM. The Kd with human IL-17A [4] was 524 pM; with human IL-17A/F [5], 2110 pM; with cynomolgus monkey IL-17A [6], 773 pM; with rat IL-17A [7], 3770 pM; in the experiment with mouse IL-17A [8], 2210 pM. For the same molecule, the koff was 0.000142 s⁻¹ with human IL-17A [4]; 0.00086 s⁻¹ with human IL-17A/F [5]; 0.000351 s⁻¹ in the experiment with cynomolgus monkey IL-17A [6]; 0.000667 s⁻¹ with rat IL-17A [7]; 0.000522 s⁻¹ with mouse IL-17A [8]. The kon in the experiment with human IL-17A [4] was 271000 M⁻¹ s⁻¹; with human IL-17A/F [5], 408000 M⁻¹ s⁻¹; with cynomolgus monkey IL-17A [6], 454000 M⁻¹ s⁻¹; in the experiment with rat IL-17A [7], 177000 M⁻¹ s⁻¹; in the experiment with mouse IL-17A [8], 236000 M⁻¹ s⁻¹.

B3: IL17-h10F7.15 (antibody, V domains shown)
VH: B1 VH
VL: B1 VL with D1E, Q3V
notes: IgG; constant regions not specified
In turn, B3 gave an EC50 with human IL-17A [1] of 140 pM. The results for the “Potency (pM)” value in the experiment with human IL-17A [2] and with cynomolgus monkey IL-17A [3] were 309 pM and 499 pM, respectively.

B4: IL17-h10F7.13 (antibody, V domains shown)
VH: B1 VH
VL: B1 VL with D1Q, Q3V
notes: as for B3
On to B4, for which the EC50 with human IL-17A [1] worked out at 100 pM. Also, the figures for the “Potency (pM)” value with human IL-17A [2] and with cynomolgus monkey IL-17A [3] were 242 pM and 429 pM, respectively.

B5: IL17-h10F7.17 (antibody, V domains shown)
VH: B1 VH
VL: B2 VL with E1Q
notes: as for B3
In the experiment with human IL-17A [1], B5 returned an EC50 of 100 pM. Besides, the “Potency (pM)” value worked out at 510 pM with human IL-17A [2] and 293 pM in the experiment with cynomolgus monkey IL-17A [3].

B6: ML109-7D7 (antibody, V domains shown)
VH: QVQLQQSGAELVRPGTSVTLSCKASGYRFTDYEIHWIKQTPAQVLEWIGVTDPESGGTLHNPKFDGKATLTADKSSRTAYMELRSLTSEDSAVYYCTRYYKYESFYGMDYWGQGTSVTVSS
VL: QIVLTQSPAIMSAFPGEKVTMTCSASSSISYMCWYQQKPGTSPKRWICDTSKLASGVPVRFSGSGSGTSYSLTINSMETEDAATYYCQQRSSYPWTFGGGTKVEIKR
As for B6, the “Potency (pM)” value with human IL-17A [9] is 81 pM.

B7: ML109-6C6 (antibody, V domains shown)
VH: QVQLQQSGAELVRPGASVKLSCKASGYTFSDYEIHWVKQTPVHGLAWIGVIHPGNGGTAYNQKFKDKATLTADKSSSTAYMELSSLTSEDSAVYYCERFLTYEGYFDYWGQGTTLTVSS
VL: SIVMTQTPKFLLVSAGDRVTITCKASQSVNNDVAWYQHKPGQSPKLLINYASNRYTGVPDRFTGSGYGTDFTFTISTVQAEDLAIYFCQQDYGSPYTFGGGTKLEIKR
notes: Hybridoma-derived murine mAb; also called 6C6.3B4
As to B7, in the experiment with human IL-17A [9], the “Potency (pM)” value stood at 36 pM. The Kd with human IL-17A [10] was found to be 18.7 pM; in the experiment with human IL-17A/F [11], 189 pM; in the experiment with cynomolgus monkey IL-17A [12], 42.5 pM; with rat IL-17A [13], 142 pM; in the experiment with mouse IL-17A [14], 357 pM. The koff with human IL-17A [10] amounted to 6.78e-05 s⁻¹; with human IL-17A/F [11], 0.000366 s⁻¹; in the experiment with cynomolgus monkey IL-17A [12], 0.000116 s⁻¹; with rat IL-17A [13], 0.000704 s⁻¹; in the experiment with mouse IL-17A [14] it was 0.00087 s⁻¹. Further, the kon with human IL-17A [10] is 3.63e+06 M⁻¹ s⁻¹; in the experiment with human IL-17A/F [11], 1.94e+06 M⁻¹ s⁻¹; with cynomolgus monkey IL-17A [12], 2.73e+06 M⁻¹ s⁻¹; in the experiment with rat IL-17A [13], 4.95e+06 M⁻¹ s⁻¹; in the experiment with mouse IL-17A [14], 2.44e+06 M⁻¹ s⁻¹.

B8: ML109-5C5 (antibody, V domains shown)
VH: B7 VH with S25L, S30T, I34F, A46E, K63N, K65R, A92G, E97T, T114A
VL: NIVMTQTPKFLLVSPGDRVTITCKASQSVSIDVGWFQQKPGQSPKLLIYHASNRYTGVPDRFTGSGYGTDFTFTVNTVQAEDLAVYFCQQDYSSPYTFGGGTKLELKR
As to B8, the “Potency (pM)” value with human IL-17A [9] stood at 23 pM.

B9: m10F7hIgG1 (antibody, V domains shown)
VH: QVQLQQSGAELVRPGTSVTLSCKASGYIFTDYEIHWVKQTPVHGLEWIGVNDPESGGTFYNQKFDGKAELTADKSSSTAYMELRSLTSEDSGVYYCTRYYRYESFYGMDYWGQGTSITVSS
VL: QIVLTQSPAIMSASPGEKVTMTCSASSSISYIYWFQQKPGTSPKRWIYATFELASGVPARFSGSGSGTSYSLTISSMEAEDAATYYCHQRSSYPWTFGGGSKLEIKR
On to B9, for which the “Potency (pM)” value with human IL-17A [2] stood at 40 pM; with cynomolgus monkey IL-17A [3], 79 pM.

B10: ML109-10F7 (antibody, V domains shown)
VH: B9 VH
VL: B9 VL
notes: Hybridoma-derived murine mAb; also called 10F7.3D1
Take B10: in the experiment with human IL-17A [9], the “Potency (pM)” value is 54 pM. The Kd in the experiment with human IL-17A [10] came to 62.6 pM; with human IL-17A/F [11], 673 pM; with cynomolgus monkey IL-17A [12], 68.4 pM; in the experiment with rat IL-17A [13], 197 pM; with mouse IL-17A [14] it was 221 pM. For the same molecule, the koff in the experiment with human IL-17A [10] stood at 0.000159 s⁻¹; in the experiment with human IL-17A/F [11], 0.000686 s⁻¹; in the experiment with cynomolgus monkey IL-17A [12] it was 0.000145 s⁻¹; with rat IL-17A [13], 0.000623 s⁻¹; in the experiment with mouse IL-17A [14], 0.000354 s⁻¹. For the same molecule, the kon with human IL-17A [10] stood at 2.54e+06 M⁻¹ s⁻¹; with human IL-17A/F [11], 1.02e+06 M⁻¹ s⁻¹; with cynomolgus monkey IL-17A [12], 2.12e+06 M⁻¹ s⁻¹; in the experiment with rat IL-17A [13], 3.17e+06 M⁻¹ s⁻¹; in the experiment with mouse IL-17A [14], 1.6e+06 M⁻¹ s⁻¹.
